From patent US20250075002A1 come the findings set out here.

The target in the experiment is Human MUC1 (full length), on cells (human) (UniProt P15941). The experiment can be described thus: cell-based or functional assay.
Sequence of Human MUC1 (full length), on cells (human) (P15941 24-1255 limits assumed): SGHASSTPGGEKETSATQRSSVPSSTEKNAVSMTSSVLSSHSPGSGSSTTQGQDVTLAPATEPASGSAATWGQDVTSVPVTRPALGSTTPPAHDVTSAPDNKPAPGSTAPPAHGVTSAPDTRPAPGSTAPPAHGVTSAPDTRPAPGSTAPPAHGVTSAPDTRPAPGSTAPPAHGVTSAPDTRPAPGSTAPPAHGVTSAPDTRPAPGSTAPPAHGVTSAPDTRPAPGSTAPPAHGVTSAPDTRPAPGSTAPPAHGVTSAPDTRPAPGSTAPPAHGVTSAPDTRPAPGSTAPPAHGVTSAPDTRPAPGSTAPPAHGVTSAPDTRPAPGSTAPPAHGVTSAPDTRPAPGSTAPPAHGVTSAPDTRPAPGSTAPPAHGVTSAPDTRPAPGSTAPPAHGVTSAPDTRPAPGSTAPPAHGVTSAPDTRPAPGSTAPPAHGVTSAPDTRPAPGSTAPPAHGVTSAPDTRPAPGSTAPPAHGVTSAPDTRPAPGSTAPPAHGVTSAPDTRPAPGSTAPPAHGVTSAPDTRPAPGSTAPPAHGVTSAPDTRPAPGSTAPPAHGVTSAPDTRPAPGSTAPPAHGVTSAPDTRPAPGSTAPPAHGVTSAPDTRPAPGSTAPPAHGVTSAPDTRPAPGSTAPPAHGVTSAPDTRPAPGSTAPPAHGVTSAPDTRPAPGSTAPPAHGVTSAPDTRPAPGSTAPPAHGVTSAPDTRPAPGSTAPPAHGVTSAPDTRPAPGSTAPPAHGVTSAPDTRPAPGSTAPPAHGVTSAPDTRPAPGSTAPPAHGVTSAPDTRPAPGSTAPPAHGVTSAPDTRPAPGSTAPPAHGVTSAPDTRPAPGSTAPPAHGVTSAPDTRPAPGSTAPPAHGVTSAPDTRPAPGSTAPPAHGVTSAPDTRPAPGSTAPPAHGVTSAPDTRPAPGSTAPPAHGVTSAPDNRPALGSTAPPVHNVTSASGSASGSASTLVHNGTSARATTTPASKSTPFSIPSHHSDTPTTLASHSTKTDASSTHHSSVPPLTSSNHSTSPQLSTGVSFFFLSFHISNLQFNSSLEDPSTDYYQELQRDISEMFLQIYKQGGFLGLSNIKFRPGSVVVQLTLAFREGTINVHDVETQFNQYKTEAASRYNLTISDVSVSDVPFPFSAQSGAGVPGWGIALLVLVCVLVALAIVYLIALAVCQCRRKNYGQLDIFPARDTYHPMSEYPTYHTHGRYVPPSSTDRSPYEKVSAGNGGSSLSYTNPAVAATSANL

B1: huBG219P-E39-AF (antibody, human IgG1, V domains shown)
VH: EVQLLESGGGLVQPGGSLRLSCAASGFTFNDYIMSWVRQAPGKGLEWVATVSSGGDNTYYPDSVKGRFTISRDNSKNTLYLQMNSLRAEDTAVYYCTRYGGLGAMDYWGQGTLVTVSS
VL: DIQMTQSPSSLSASVGDRVTITCRASGNIHNYLTWYQQKPGKAPKLLIYNAKTLASGVPSRFSGSGSGTDFTLTISSLQPEDFATYYCQHFWSVPYTFGQGTKLEIK
modifications: afucosylated Fc glycan (-AF; expressed with 2F-peracetyl-fucose)
In the case of B1, the ADCC EC50, HCC827 (MUC1 medium), NK92mi/CD16A F158 effectors, w/o huIgG was 11.5 nM; the ADCC EC50, T-47D (MUC1 high), NK92mi/CD16A F158 effectors, w/o huIgG turned out to be 1.3 nM; the ADCC EC50, T-47D (MUC1 high), NK92mi/CD16A V158 effectors, w/o huIgG was found to be 0.603 nM; the ADCC Emax, H358 (MUC1 low), NK92mi/CD16A F158 effectors, 10 mg/ml huIgG1 is 10.7%. The same molecule showed an ADCC Emax, H358 (MUC1 low), NK92mi/CD16A F158 effectors, w/o huIgG of 10.2%; an ADCC Emax, H358 (MUC1 low), NK92mi/CD16A V158 effectors, 10 mg/ml huIgG1 of 15.5%; an ADCC Emax, H358 (MUC1 low), NK92mi/CD16A V158 effectors, w/o huIgG of 15.6%; an ADCC Emax, HCC827 (MUC1 medium), NK92mi/CD16A F158 effectors, 10 mg/ml huIgG1 of 31%. The ADCC Emax, HCC827 (MUC1 medium), NK92mi/CD16A F158 effectors, w/o huIgG is 36.8%; the ADCC Emax, HCC827 (MUC1 medium), NK92mi/CD16A V158 effectors, 10 mg/ml huIgG1 stood at 26.7%; the ADCC Emax, HCC827 (MUC1 medium), NK92mi/CD16A V158 effectors, w/o huIgG amounted to 25%; the ADCC Emax, T-47D (MUC1 high), NK92mi/CD16A F158 effectors, 10 mg/ml huIgG1 came out at 25.7%. The ADCC Emax, T-47D (MUC1 high), NK92mi/CD16A F158 effectors, w/o huIgG was 48.2%; the ADCC Emax, T-47D (MUC1 high), NK92mi/CD16A V158 effectors, 10 mg/ml huIgG1 was found to be 19.2%; the ADCC Emax, T-47D (MUC1 high), NK92mi/CD16A V158 effectors, w/o huIgG was found to be 33.6%; the Cell lysis activity EC50, T-47D (MUC1 high) in human whole blood turned out to be 1.25 nM. This molecule yielded a Cell lysis activity Emax, H358 (MUC1 low) in human whole blood of 8.6%; a Cell lysis activity Emax, HCC827 (MUC1 medium) in human whole blood of 14.1%; a Cell lysis activity Emax, T-47D (MUC1 high) in human whole blood of 20.2%; a Phagocytosis (ADCP) EC50, T-47D, human M2 macrophages, w/o huIgG of 0.05 nM. This molecule also displayed a Phagocytosis (ADCP) Emax, T-47D, human M2 macrophages, 10 mg/ml huIgG1 of 17.6% and a Phagocytosis (ADCP) Emax, T-47D, human M2 macrophages, w/o huIgG of 56.4%.

B2: MUC1 5F3-hFc-AF (antibody, V domains shown)
VH: DVQVQESGPDLVKPSQSLSLTCTVTGHSITRGSSWHWIRQFPGNKLEWMGYIHYGGGTSYNPSLKSRISITRDTSKNQFFLQLNSVTTEDTATFFCARYSYDITYRWFFDVWGAGTTVIVSS
VL: DILLTQSPAILSVSPGERVSFSCRASQNIGTSIHWYQQRKNGSPRLLIKYASESISGIPSRFSGSGSGTDFTLSINSVESEDMADYYCQQNNNWPLTFGAGTKLELK
B2: the Cell lysis activity EC50, T-47D/nanoluc in human whole blood was 0.464 nM and the Cell lysis activity Emax, T-47D/nanoluc in human whole blood stood at 7.78%.
